From PMC4598119, “Cancer-Related NEET Proteins Transfer 2Fe-2S Clusters to Anamorsin, a Protein Required for Cytosolic Iron-Sulfur Cluster Biogenesis” (PLoS ONE, 2015)
One block for each binder: values may come before it.

How the values were obtained:
[1] = biological target: T1, holo-Anamorsin (prepared via cluster transfer from NAF-1), biotinylated (human, UniProt Q6FI81 1-312, biotin); assay: BLI; biotinylated holo-Anamorsin (prepared via cluster transfer) immobilised on streptavidin biosensors; 16 uM holo-NAF-1 or 32 uM holo-mNT; association 900 s, dissociation 1800 s; 2:1 heterogeneous ligand model; average of two trials; conditions: both partners purified
T1 construct: Anamorsin (CIAPIN-1), human cDNA (Abgent) subcloned into pET28-a(+) between NdeI and XhoI; same chain as m3; also called post-cluster transfer Anamorsin; CIAPIN-1; source: E. coli BL-21 Codon Plus (DE3) RIL, purified; apo form loaded by cluster transfer from NAF-1, then purified from NAF-1 on HiTrap Q anion exchange
T1 sequence (Q6FI81 whole entry): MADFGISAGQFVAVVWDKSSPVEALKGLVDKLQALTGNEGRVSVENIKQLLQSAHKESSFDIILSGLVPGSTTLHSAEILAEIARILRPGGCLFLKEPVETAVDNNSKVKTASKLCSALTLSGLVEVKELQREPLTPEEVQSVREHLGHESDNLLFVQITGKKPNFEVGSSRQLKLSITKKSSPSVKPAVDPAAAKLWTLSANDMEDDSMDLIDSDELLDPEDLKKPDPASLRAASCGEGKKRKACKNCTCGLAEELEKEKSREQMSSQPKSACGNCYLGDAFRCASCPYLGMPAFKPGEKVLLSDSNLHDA

[2] = biological target: T2, apo-Anamorsin (cytokine induced apoptosis inhibitor-1), biotinylated (human, UniProt Q6FI81 1-312, biotin (EZ-Link Sulfo-NHS-LC-biotin, 2:1 molar ratio of reagent to protein)); assay: BLI; Octet Red96; biotinylated apo-Anamorsin (3.5 uM) immobilised on streptavidin biosensors; holo-NEET in solution; 50 mM bis-tris, 100 mM NaCl, 0.1% Tween 20, 0.5 mg/ml BSA, pH 7.0, without DTT; association 900 s, dissociation 1800 s; 1:1 model; conditions: both partners purified
T2 construct: Anamorsin (CIAPIN-1), human cDNA (Abgent) subcloned into pET28-a(+) between NdeI and XhoI; Without clusters; The vector adds a 6x his-tag and a thrombin cleavage site at the N-terminus; no cleavage is described; also called CIAPIN-1; source: E. coli BL-21 Codon Plus (DE3) RIL, purified (Ni-NTA, HiTrap Q anion exchange); 2Fe-2S cluster removed by the method of Kennedy and Beinert
T2 sequence (Q6FI81 whole entry): as above

fold change of koff against apo-Anamorsin [1]: 50 fold | koff [2]: 6.17e-05 s⁻¹ | kon [2]: 317 M⁻¹ s⁻¹
B1: mitoNEET (mNT), soluble domain (residues 33-108), holo (domain or fragment, human, UniProt Q9NZ45 33-108, looked up)
chain: RFYVKDHRNKAMINLHIQKDNPKIVHAFDMEDLGDKAVYCRCWRSKKFPFCDGAHTKHNEETGDNVGPLIIKKKET
notes: mitoNEET (CISD1), human, soluble domain, residues 33-108; Homodimer; each protomer holds one 2Fe-2S cluster (3Cys:1His); at least 98% cluster occupancy; also called holo-mNT; CISD1; source: expressed and purified as described previously [19, 23]

koff [2]: 0.0011 s⁻¹ | kon [2]: 783 M⁻¹ s⁻¹
B2: nutrient-deprivation autophagy factor-1 (NAF-1), soluble domain (residues 57-135), holo (domain or fragment, human, UniProt Q8N5K1 57-135, looked up)
chain: RPFLPKKKQQKDSLINLKIQKENPKVVNEINIEDLCLTKAAYCRCWRSKTFPACDGSHNKHNELTGDNVGPLILKKKEV
notes: NAF-1 (CISD2), human, soluble domain, residues 57-135; Homodimer; each protomer holds one 2Fe-2S cluster (3Cys:1His); at least 98% cluster occupancy; also called holo-NAF-1; miner1; source: expressed and purified as described previously [19, 23]
